Measurements published in the RNAGym collection of RNA variant scans (doi:10.1093/molbev/msab373).

B1: Azoarcus group I ribozyme (parent)
chain: GUGCCUUGCGCCGGGAAACCACGCAAGGGAUGGUGUCAAAUUCGGCGAAACCUAAGCGCCCGCCCGGGCGUAUGGCAACGCCGAGCCAAGCUUCGGCGCCUGCGCCGAUGAAGGUGUAGAGACUAGACGGCACCCACCUAAGGCAAACGCUAUGGUGAAGGCAUAGUCCAGGGAGUGGCGAAAGUCACACAAACCGG

Variants of: B1
Test: reverse-splicing fitness (ratio to wild type); higher = more active; in vitro selection; Mg2+ level not given
Summary of the method: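 An in vitro group I ribozyme library with randomized positions was T7-transcribed and gel-purified. In triplicate, 10 pmol RNA in EPPS pH 7.5 was reacted with 50 pmoles of a 30-nt RNA substrate for 1 h at 37 °C across several added MgCl2 levels (1–48 mM), then stopped with EDTA. Products were reverse transcribed from a substrate-complementary primer, PCR-amplified and sequenced (HiSeq 4000). Fitness is a variant's read proportion after selection over that before, normalised to wild type.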

Variant	reverse-splicing fitness
A145U C150A C169G U176C	0.0285
A145U C150A C169G U176G	0.00588
A145U C150A C169U	0.0521
A145U C150A C169U U176A	0.031
A145U C150A C169U U176C	0.0345
A145U C150A C169U U176G	0.00699
A145U C150A U176A	0.4
A145U C150A U176C	0.363
A145U C150A U176G	0.177
A145U C150G	0.512
A145U C150G C169A	0.0224
A145U C150G C169A U176A	0.0122
A145U C150G C169A U176C	0.0151
A145U C150G C169A U176G	0.00602
A145U C150G C169G	0.0415
A145U C150G C169G U176A	0.0118
A145U C150G C169G U176C	0.00868
A145U C150G C169G U176G	0.00509
A145U C150G C169U	0.0635
A145U C150G C169U U176A	0.0182
A145U C150G C169U U176C	0.0406

Variant	reverse-splicing fitness
A145U C150G C169U U176G	0.00591
A145U C150G U176A	0.326
A145U C150G U176C	0.351
A145U C150G U176G	0.108
A145U C150U	0.943
A145U C150U C169A	0.106
A145U C150U C169A U176A	0.0236
A145U C150U C169A U176C	0.04
A145U C150U C169A U176G	0.00551
A145U C150U C169G	0.215
A145U C150U C169G U176A	0.0606
A145U C150U C169G U176C	0.0907
A145U C150U C169G U176G	0.008
A145U C150U C169U	0.312
A145U C150U C169U U176A	0.0998
A145U C150U C169U U176C	0.141
A145U C150U C169U U176G	0.0111
A145U C150U U176A	0.908
A145U C150U U176C	0.816
A145U C150U U176G	0.342
A145U C169A	0.173

Variant	reverse-splicing fitness
A145U C169A U176A	0.0255
A145U C169A U176C	0.0523
A145U C169A U176G	0.00543
A145U C169G	0.3
A145U C169G U176A	0.0717
A145U C169G U176C	0.133
A145U C169G U176G	0.00761
A145U C169U	0.407
A145U C169U U176A	0.109
A145U C169U U176C	0.149
A145U C169U U176G	0.013
A145U U176A	0.937
A145U U176C	0.911
A145U U176G	0.462
C150A	0.484
C150A C169A	0.0251
C150A C169A U176A	0.0214
C150A C169A U176C	0.0227
C150A C169A U176G	0.00665
C150A C169G	0.0379
C150A C169G U176A	0.026

Variant	reverse-splicing fitness
C150A C169G U176C	0.0327
C150A C169G U176G	0.00565
C150A C169U	0.061
C150A C169U U176A	0.0369
C150A C169U U176C	0.0421
C150A C169U U176G	0.00737
C150A U176A	0.406
C150A U176C	0.398
C150A U176G	0.185
C150G	0.42
C150G C169A	0.02
C150G C169A U176A	0.0121
C150G C169A U176C	0.0144
C150G C169A U176G	0.00618
C150G C169G	0.0309
C150G C169G U176A	0.00867
C150G C169G U176C	0.0077
C150G C169G U176G	0.0051
C150G C169U	0.0492
C150G C169U U176A	0.0131
C150G C169U U176C	0.0326
